In experiment [1] the target is biotinylated clamp loader complex ^bioχψτ3δδ’ (Escherichia coli K12) (UniProt P28905). The experiment in a line: SPR.
In experiment [2] the target is DnaB^F102C (Escherichia coli K12) (UniProt P0ACB0).
A further experiment has as its target DnaB (Escherichia coli) (UniProt P0ACB0). To be noted: cited from earlier work.
The target of experiment [3] is DnaB^F102C (Escherichia coli K12) (UniProt P0ACB0). The experiment in a line: cross-linking.
Experiment [4] deals with DnaB helicase, wild type (DnaB^wt) (Escherichia coli K12) (UniProt P0ACB0).

As to “DnaB^wt•DnaGC complex (from UniProt P0ACB0 1-471)”, the Kd (in general, the concentration at which binding is half-saturated) in experiment [1] worked out at 2.6 nM. In experiment [2], “DnaGC, C-terminal helicase-binding domain of DnaG primase (domain or fragment)” registered a fold less efficient interaction than with wild-type DnaB of 200 fold. For the substance DnaG (from UniProt P0ABS5), in the experiment with DnaB (Escherichia coli), the Kd was 2800 nM. In experiment [3], DnaGC^R568C/C492L (domain or fragment) gave a disulfide crosslinking efficiency of 100%. This substance registered a fold weaker interaction than wild-type DnaGC in experiment [4] of 30 fold.

The record behind these values is article PMC7335327.
